According to article PMC3793637 (Nature, 2013):

Experiments:
[1] = target: insulin receptor site 1 (Homo sapiens) (UniProt P06213); conditions: cited from earlier work
[2] = target: insulin receptor site 2 (Homo sapiens) (UniProt P06213); conditions: cited from earlier work
[3] = target: the molecule itself; assay: crystal structure
[4] = target: the molecule itself; assay: SEC

Sequence of insulin receptor site 2 (Homo sapiens) (P06213 763-956): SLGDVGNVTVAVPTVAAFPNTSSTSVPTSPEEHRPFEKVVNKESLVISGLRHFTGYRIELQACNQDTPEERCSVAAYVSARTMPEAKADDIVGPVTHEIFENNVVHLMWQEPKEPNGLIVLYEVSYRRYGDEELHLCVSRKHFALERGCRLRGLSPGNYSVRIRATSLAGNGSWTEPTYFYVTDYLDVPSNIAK
Sequence of insulin receptor site 1 (Homo sapiens) (P06213 763-956): as above

For insulin (from UniProt P01308), the Kd [1] is given as 6.4 nM and the Kd [2] is given as 400 nM.

B1: IR593.αCT (domain or fragment, human, UniProt P06213 28-620, looked up)
chain: HLYPGEVCPGMDIRNNLTRLHELENCSVIEGHLQILLMFKTRPEDFRDLSFPKLIMITDYLLLFRVYGLESLKDLFPNLTVIRGSRLFFNYALVIFEMVHLKELGLYNLMNITRGSVRIEKNNELCYLATIDWSRILDSVEDNYIVLNKDDNEECGDICPGTAKGKTNCPATVINGQFVERCWTHSHCQKVCPTICKSHGCTAEGLCCHSECLGNCSQPDDPTKCVACRNFYLDGRCVETCPPPYYHFQDWRCVNFSFCQDLHHKCKNSRRQGCHQYVIHNNKCIPECPSGYTMNSSNLLCTPCLGPCPKVCHLLEGEKTIDSVTSAQELRGCTVINGSLIINIRGGNNLAAELEANLGLIEEISGYLKIRRSYALVSLSFFRKLRLIRGETLEIGNYSFYALDNQNLRQLWDWSKHNLTITQGKLFFHYNPKLCLSEIHKMEEVSGTKGRQERNDIALKTNGDQASCENELLKFSYIRTSFDKILLRWEPYWPPDFRDLLGFMLFYKEAPYQNVTEFDGQDACGSNSWTVVDIDPPLRSNDPKSQNHPGWLMRGLKPWTQYAIFVKTLVTFSDERRTYGAKSDIIYVQTDATTFEDYLHNVVFVPRPS
In the case of B1, the “stoichiometry N” value [3] is reported as 4 and the “stoichiometry N” value [4] is reported as 2.
